{"source": "the DeepSol protein solubility set", "data": [{"experiment": "soluble on expression in E. coli; label from the status in PepcDB or PDB records", "values": [{"sequence": "MGSDKIHHHHHHLDLSPEDYYGSGNFWTKEAQVEGYMNGLHNNLRSSYTMFYVLGEARGGTSRYGTSSLGTSMSYSDPIKNNMLTKDNTGISNWYDLYGRIMQVNHFISEVSNGCSFLSESKKGFYLGQAYGLRALYYFMLYKTYGGVPLITDVKVLEGGKISADALYTERSTPETILKFIKSDLEASELNFGNNVTIDRAMWTKYATLMLKAEVYMWSAKVTTGDHQATGNSDLAIAQTALQPLINQFSLLDNFSEVFSKKANDEIIFAIRFKDGEATNWAGPFIYYGNIFEGQRYGRDGKLMQDTLDLKGTVGQFLHEYKKALWDSYDDEDMRRDATFMDHYGSAQKEGFGIAMKKGIGSVNSNNQRIFDTDIIVYRYADVLLMMAEIENALSGKCANYVNEVRKRAYGKNWHPQFAYTDGSYADNELTILHERDKEFVWEGKRWFDVVRMHDANGKSLAFSVAANYPNNETPDERVPLIKESEAHKLLWPIDVNTLNNDPKLEQTPGYDK", "soluble on expression in E. coli": "not soluble"}, {"sequence": "MSEAEYFSHFISNGNGKLLEIPQRRGRQDGVFIDWLSFTLHEDSLLKVSGCPLVSDAEYMFVLSKKLEEILGFGITSRCKSKGNKFYDSMFRLGSEEVDYGEVHYGGQRNTVLIELKGVGCNIANPGWELRLKQFLEDSLRPRITRVDLALDFFDGEYTPEQALLDHDNGFFDNSNMRPKSEMVGTAWRREDGSGKTFYVGRKKNSRFVRVYEKGRQLGDKESKWVRFEIQFNHGDMEIPLDILINQGSYFSGAFPICQKFKNMPNPERFDYRKKVANLTFQHKLRYAKNAVGKLINFMFDMGFDSDEIVRYLKADLGYPKGLEPEKYSLAGLKESLKFGFIHEQPDVDLEVELEELGIIKFKQSDKFDPDKRLFDPHHDVESERQYQLYLDRMYDLHANQN", "soluble on expression in E. coli": "not soluble"}, {"sequence": "MGSDKIHHHHHHMRALVLAAGKGTRMKSKIPKVLHPLSGRPMIEWVIETAGKVAQKVGVVLGFEAELVRKALPEWVDVFVQGEQLGTAHAVMCAKDFIEPGDDVLILYGDVPLISENTLKRMIEEHRKGADVTILVADLEDPSGYGRVIQDGDKYRIIEDTDLPEELKSVTTINTGFYVFSGDFLLRALPEIKNENAKGEYYLTDAVNFAEKVRVVRTDDLLEITGVNTRKTLVWLEEQLRMRKIEELLENGVTILDPATTYIHYSVEIGMDTVIYPMTFIEGKSRVGENCEIGPMTRIVDCEIGNNVKITRSECFKSVIEDDVSVGPFARLREGTILKKSSKIGNFVEIKKSTIGEGTKAQHLSYIGDAFVGKNVNVGAGTITCNYDGKKKNPTFIEDGAFIGSNSSLVAPVRIGKGALIGAGSVITEDVPPYSLGLGRARQVVKEGWVLKKRKEE", "soluble on expression in E. coli": "not soluble"}, {"sequence": "MSNDQSAMNELHWLIDMVQTIEVGLVVLDRDYNIQLWNGFMENHSGVSPNSIKGQNLFSRFPDLPATWLKQKMESVFMLKNRAFISWEQRPYVFQFKNYRPITGRADFMYQNVTLLPLASLTGKITHISVIVYDVTDIAVNKLEHHHHHH", "soluble on expression in E. coli": "soluble"}, {"sequence": "MGSDKIHHHHHHMISSITSSIPKDVLYAAAEWYATLYDEDCSENDRQTWQRWLHEDETHRLAWQQVEQIHARFHAVDSQLASSVLSRRGEERRRMLKLLVIASVTGGVGFSLPWDSYAADYRTGTGETRELSIETGMTVWLNTDSALNQQGNPALSQPLTFQLIKGELMLDNQTAHAARLTTPHGDLAAAAYSCQLALRYTSAHSVLSVFSGEVLLQTAVPAAQRVTAGQQVIFTRDRCSEPAPVENFRQSWRKGLLVADSMPLGQLINEISRYHNGYFHVDSAVTNLRISGVFPLHETDRLLDAIVRTLPVKVSRRFSWWVDIRPS", "soluble on expression in E. coli": "not soluble"}, {"sequence": "TLTTTPNQLTDGLEKSLRPLNKIHVPVHEIAMMMSIALRFIPILLEETDKIMKAQIARGADFENGNLIQKVKNMVPLLVPLFISAFRRANDLAMAMEARCYHGGDNRTQMKPLKYKKRD", "soluble on expression in E. coli": "not soluble"}, {"sequence": "SHMAIVKVTDADFDSKVESGVQLVDFWATACGPCKMIAPVLEELAADYEGKADILKLDVDENPSTAAKYEVMSIPTLIVFKDGQPVDKVVGFQPKENLAEVLDKHL", "soluble on expression in E. coli": "soluble"}, {"sequence": "SFQGIRQPVTVTELVDSGILRPSTVNELESGQISYDEVGERIKDFLQGSSCIAGIYNETTKQKLGIYEAMKIGLVRPGTALELLEAQAATGFIVDPVSNLRLPVEEAYKRGLVGIEFKEKLLSAERAVTGYNDPETGNIISLFQAMNKELIEKGHGIRLLEAQIATGGIIDPKESHRLPVDIAYKRGYFNEELSEILSDPSDDTKGFFDPNTEENLTYLQLKERCIKDEETGLCLLPLKEKKKQVQTS", "soluble on expression in E. coli": "soluble"}, {"sequence": "MGSDKIHHHHHHMIVAVGKDEEKIKESLEEMKGLCKTLGVEVVEWLWQKRAKPDPATYLGKGKLQKLKEVVEFCEADLVVVDDEITPVQYKNMQSELNVDVLDRTQVILEIFARHATSEEGKLQVEMASLLYELPRLVGKGEELSRLGGGIGTRGPGEPLLEVLRRHIKNRIAQLRKRLKEIEQERNTQRKQRLEKKIPHVSIVGYTNAGKSTLLKVLTDSDVYVADKLFATLEPVTRRLKLKSGRVILVSDTVGFIRKLPHTIVSAFKATLEEIKYSDVLIHLVDASDPYLEEKMKASEKVLEEIGADKIPRILVFNKIDLCPRERIETLKWKYPEALFISAEKRIGLDQLLDRLEEVISQRDVQETLKVPLEKIGQIYALKDRLEILNEDYREGYALITLKTDRETLEMLKRKVAS", "soluble on expression in E. coli": "not soluble"}, {"sequence": "MSWKIIEKYRRILAQEEGNSPKRRGGKLTVCLVYPNRYGVAMSNLGFQAVHALLNAESDILCERAFLPDPDDLREYRRSGARLLSLESQEPLSSFDIIAFSVSFESDYLNIPVIFDLAGIPALAAERTGSHPLVMGGGAALFLNPEPVADFLDLIVVGEGEAILPTFLDHIRADGIGDRAMFLAGVAGLPGIYVPSLYATEYDGARLVSREAKDGAPEQVKRIWMAEPDGRATVSEILTPGTEFSDMYLVEVSRGCGRGCRFCAAGFIYHPYRQRSLDAVKAAVAEGLSHRRKIGLVGAAVSDFREIGELCRHILAEGGTVSVSSLRIDRLDEGMIEVLKASGHKTVALAPEGGSQRIRDLINKNLTEEQILAACDLLIGHDILNLKLYFIIGLPTETMDDLEEMALLVEKIRKRVIAAARKNKRLGEIILSVNPFVPKPFTPFQWCGMEDTPSLEKKLKYLQQTVGRLSNVRLIAESPKDAWLQALLSRGDRRLSGFLLRAAELGNWKRAAREFPVDTDFLVHRTIPLDEMLPWDVIASADAERLRREYLKATPPRLEHHHHHH", "soluble on expression in E. coli": "not soluble"}, {"sequence": "MGSDKIHHHHHHMPLERLNFLGLRNLAALDMRPGPGINLITGANGSGKTSLLEGMHVLGMARSFRTQKLKHAIAHDADAVTLHGRVAGDPPVALGVRRARDASELEIRLDGERGVRVARLAEALPLQLINPDAFRLLEGSPAARREFLDWGVFHVKHEFFEAWRRVRRALKHRNALLRHDRIDARSMRVWEQELAHWSELLDALRSEYMAQFAKAFEDTLHELLPLSGLSLRYYRGWDKQRGLLEVLEGGRDTDRQMGFTQQGPQRADLRLRIGKRAAVEELSRGQQKLVVSALKLAQGRLLDELTGRTCVYLIDDLPAELDVTHRRIFCHWLERLRCQVFITSVEREALANAWQSETDVAMFHVEHGRLLTE", "soluble on expression in E. coli": "not soluble"}, {"sequence": "MRNIIFTGKGGVGKTSVAAATALKAADMGYKTLIMSTDPAHSLGDSLDIELGPSPVKVAENLWGQEVSVFGDLNLNWDVVREHFAHLMASRGIEGVYAEEMGVLPGMEELFSLSYIKRYNEEQKDFDLLVVDCAPTGETLRLLSLPETFGWFIKMIRNIEKYMVKPVIRPLSKKVKKLDDFVAPEEVYEKVDNLFSSTEGIIDLLADGTKTTMRLVMNPEKMVIKESMRALTYLNLYGITVDRITINRVMPDQSPDPYFQQWRNIQQKYIDQINSAFAPIPVAEVPLFNNEVVGLEMLRKVGEKVYGDENPLDIF", "soluble on expression in E. coli": "not soluble"}, {"sequence": "TEPTIHKGLAGVTADVTAISKVNSDTNSLLYRGYPVQELAAKCSFEQVAYLLWNSELPNDSELKAFVNFERSHRKLDENVKGAIDLLSTACHPMDVARTAVSVLGANHARAQDSSPEANLEKAMSLLATFPSVVAYDQRRRRGEELIEPREDLDYSANFLWMTFGEEAAPEVVEAFNVSMILYAEHSFNASTFTARVITSTLADLHSAVTGAIGALKGPLHGGANEAVMHTFEEIGIRKDESLDEAATRSKAWMVDALAQKKKVMGFGHRVYKNGDSRVPTMKSALDAMIKHYDRPEMLGLYNGLEAAMEEAKQIKPNLDYPAGPTYNLMGFDTEMFTPLFIAARITGWTAHIMEQVADNALIRPLSEYNGPEQRQVP", "soluble on expression in E. coli": "soluble"}, {"sequence": "MSRQTEIVRRMVSAFNTGRTDDVDEYIHPDYLNPATLEHGIHTGPKAFAQLVGWVRATFSEEARLEEVRIEERGPWVKAYLVLYGRHVGRLVGMPPTDRRFSGEQVHLMRIVDGKIRDHRDWPDFQGTLRQLGDPWPDDEGWRP", "soluble on expression in E. coli": "soluble"}]}]}
